# From patent publication US20250136688A1 (Janssen / Centocor, published 2025)
# T1: ectonucleotide pyrophosphatase/phosphodiesterase family member 3 (ENPP3) (human, UniProt O14638 1-875)
# T1 sequence (looked up): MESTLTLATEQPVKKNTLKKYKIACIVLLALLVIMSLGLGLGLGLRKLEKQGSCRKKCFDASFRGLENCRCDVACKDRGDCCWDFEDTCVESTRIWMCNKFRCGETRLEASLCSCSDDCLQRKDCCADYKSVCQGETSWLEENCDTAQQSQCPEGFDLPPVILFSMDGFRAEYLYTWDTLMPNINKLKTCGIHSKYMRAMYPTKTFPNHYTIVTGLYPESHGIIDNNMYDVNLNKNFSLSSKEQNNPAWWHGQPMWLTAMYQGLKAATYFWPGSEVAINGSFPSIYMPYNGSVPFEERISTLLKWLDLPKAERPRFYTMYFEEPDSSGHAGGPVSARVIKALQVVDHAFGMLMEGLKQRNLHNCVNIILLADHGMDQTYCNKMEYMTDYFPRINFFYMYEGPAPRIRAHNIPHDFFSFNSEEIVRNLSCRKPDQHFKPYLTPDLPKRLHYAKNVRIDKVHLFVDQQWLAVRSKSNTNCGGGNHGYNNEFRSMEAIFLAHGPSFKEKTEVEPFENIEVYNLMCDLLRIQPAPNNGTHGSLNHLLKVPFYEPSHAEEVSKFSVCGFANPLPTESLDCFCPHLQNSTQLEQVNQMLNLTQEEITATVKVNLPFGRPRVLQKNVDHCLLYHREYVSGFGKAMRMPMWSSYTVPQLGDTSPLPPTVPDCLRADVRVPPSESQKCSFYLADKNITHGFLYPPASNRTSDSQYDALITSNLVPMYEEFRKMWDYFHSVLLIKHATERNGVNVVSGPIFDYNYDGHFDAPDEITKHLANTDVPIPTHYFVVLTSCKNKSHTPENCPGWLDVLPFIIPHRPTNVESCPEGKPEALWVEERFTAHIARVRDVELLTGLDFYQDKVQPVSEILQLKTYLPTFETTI
# T2: cyno ENPP3 (cynomolgus monkey, UniProt A0A2K5TKP4 1-874)
# T2 sequence: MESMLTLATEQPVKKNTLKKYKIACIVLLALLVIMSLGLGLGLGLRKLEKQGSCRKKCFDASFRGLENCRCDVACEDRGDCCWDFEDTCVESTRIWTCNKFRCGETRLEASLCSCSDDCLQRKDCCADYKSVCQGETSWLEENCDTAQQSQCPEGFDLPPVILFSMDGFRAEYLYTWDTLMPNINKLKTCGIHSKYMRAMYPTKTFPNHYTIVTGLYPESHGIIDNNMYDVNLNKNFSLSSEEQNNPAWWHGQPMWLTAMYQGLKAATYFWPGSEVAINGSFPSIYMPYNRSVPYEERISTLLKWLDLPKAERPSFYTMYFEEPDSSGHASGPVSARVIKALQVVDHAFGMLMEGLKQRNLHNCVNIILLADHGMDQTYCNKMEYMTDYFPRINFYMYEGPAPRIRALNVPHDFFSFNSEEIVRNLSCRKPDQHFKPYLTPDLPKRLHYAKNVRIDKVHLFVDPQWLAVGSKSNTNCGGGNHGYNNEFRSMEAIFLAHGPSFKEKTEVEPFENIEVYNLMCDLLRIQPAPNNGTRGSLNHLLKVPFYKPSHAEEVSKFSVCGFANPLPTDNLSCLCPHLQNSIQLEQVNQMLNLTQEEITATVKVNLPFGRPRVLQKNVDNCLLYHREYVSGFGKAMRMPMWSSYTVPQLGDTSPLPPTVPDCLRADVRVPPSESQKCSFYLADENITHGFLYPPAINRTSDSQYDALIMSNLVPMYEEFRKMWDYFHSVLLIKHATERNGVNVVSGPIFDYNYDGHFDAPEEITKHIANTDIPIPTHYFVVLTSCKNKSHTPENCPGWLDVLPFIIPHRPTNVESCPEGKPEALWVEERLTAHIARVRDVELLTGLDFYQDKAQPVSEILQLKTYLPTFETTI
# How the values were obtained:
# [1] = target: T1, ectonucleotide …; assay: cell-based or functional assay
# [2] = target: T2, cyno ENPP3; assay: cell-based or functional assay
# [3] = target: T1, ectonucleotide …; assay: flow cytometry on CHO ENPP3 OE cells
# [4] = target: T3, Human CD3 epsilon (human, UniProt P07766 23-207); assay: flow cytometry on T cells, average of 6 healthy human donors
# T3 construct: Stood on human T cells (pan-T cells, isolated donor T cells) as part of the TCR/CD3 complex; the other chains of the complex are not written here; also called CD3ε; CD3R
# [5] = target: T3, Human CD3 epsilon; assay: flow cytometry on T cells of healthy human donor 110040278
# [6] = target: T3, Human CD3 epsilon; assay: flow cytometry on T cells of healthy human donor 110044049
# [7] = target: T3, Human CD3 epsilon; assay: flow cytometry on T cells of healthy human donor 110048457
# [8] = target: T3, Human CD3 epsilon; assay: flow cytometry on T cells of healthy human donor 888668965
# T3 sequence (P07766 23-207 limits assumed): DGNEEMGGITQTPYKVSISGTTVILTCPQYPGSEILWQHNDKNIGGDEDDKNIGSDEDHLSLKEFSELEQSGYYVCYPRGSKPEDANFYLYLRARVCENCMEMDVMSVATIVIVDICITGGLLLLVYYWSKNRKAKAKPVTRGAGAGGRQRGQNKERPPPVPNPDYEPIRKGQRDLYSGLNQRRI
binder,measurement,setting,value
"NPP3B815 (NPP3B56×CD3B2030-N106A-spFv) (bispecific antibody, human IgG1, kappa, L234A L235A, Heavy Chain 1 = anti-CD3 spFv-Fc (knob); Heavy Chain 2 and Light Chain = anti-ENPP3 Fab arm NPP3B56 (hole); IgG1 with L234A, L235A, D265S; also called ENPP3×CD3) EIVLTQSPATLSASPGERVTLSCSASSSVSYMNWYQQKPGCAPRRWIYDSSKLASGVPARFSGSGSGRDYTLTISSLEPEDFAVYYCQQWSRNPPTFGGGTKVEIKGGGSGGSGGCPPCGGSGGQVQLVQSGAEVKKPGSSVKVSCKASGYTFTRSTMHWVKQAPGQGLEWIGYINPSSAYTNYNQKFQGRVTLTADKSTSTAYMELSSLRSEDTAVYYCASPQVHYDYAGFPYWGCGTLVTVSSEPKSSDKTHTCPPCPAPEAAGGPSVFLFPPKPKDTLMISRTPEVTCVVVSVSHEDPEVKFNWYVDGVEVHNAKTKPREEQYNSTYRVVSVLTVLHQDWLNGKEYKCKVSNKALPAPIEKTISKAKGQPREPQVYTLPPSREEMTKNQVSLWCLVKGFYPSDIAVEWESNGQPENNYKTTPPVLDSDGSFFLYSKLTVDKSRWQQGNVFSCSVMHEALHNHYTQKSLSLSPGK heavy: EVQLVESGGGRVKPGGSLRLSCAASGFTFSDYSMNWVRQAPGKGLEWVSSISSISSYVKYADSVKGRFTMSRDNAKNSLFLQMNSLRDEDMAVYYCARGHYFDYWGQGTLVTVSSASTKGPSVFPLAPSSKSTSGGTAALGCLVKDYFPEPVTVSWNSGALTSGVHTFPAVLQSSGLYSLSSVVTVPSSSLGTQTYICNVNHKPSNTKVDKKVEPKSCDKTHTCPPCPAPEAAGGPSVFLFPPKPKDTLMISRTPEVTCVVVSVSHEDPEVKFNWYVDGVEVHNAKTKPREEQYNSTYRVVSVLTVLHQDWLNGKEYKCKVSNKALPAPIEKTISKAKGQPREPQVYTLPPSREEMTKNQVSLSCAVKGFYPSDIAVEWESNGQPENNYKTTPPVLDSDGSFFLVSKLTVDKSRWQQGNVFSCSVMHEALHNRFTQKSLSLSPGK light: not shown","killing EC50 with PBMCs, A704, donor 110040278, E:T 3:1",[1],0.052 nM
same,"killing EC50 with PBMCs, A704, donor 110040278, E:T 5:1",[1],0.028 nM
same,"killing EC50 with PBMCs, A704, donor 110042496, E:T 3:1",[1],0.097 nM
same,"killing EC50 with PBMCs, A704, donor 110042496, E:T 5:1",[1],0.061 nM
same,"killing EC50 with PBMCs, A704, donor 110042593, E:T 1:1",[1],0.124 nM
same,"killing EC50 with PBMCs, A704, donor 110042593, E:T 3:1",[1],0.039 nM
same,"killing EC50 with PBMCs, A704, donor 110042593, E:T 5:1",[1],0.015 nM
same,"killing EC50 with PBMCs, A704, donor 110044049, E:T 1:1",[1],0.131 nM
same,"killing EC50 with PBMCs, A704, donor 110044049, E:T 3:1",[1],0.052 nM
same,"killing EC50 with PBMCs, A704, donor 110044049, E:T 5:1",[1],0.016 nM
same,"killing EC50 with PBMCs, A704, donor 110048457, E:T 3:1",[1],0.046 nM
same,"killing EC50 with PBMCs, A704, donor 110048457, E:T 5:1",[1],0.013 nM
same,"killing EC50 with PBMCs, A704, donor 888668965, E:T 1:1",[1],0.107 nM
same,"killing EC50 with PBMCs, A704, donor 888668965, E:T 3:1",[1],0.036 nM
same,"killing EC50 with PBMCs, A704, donor 888668965, E:T 5:1",[1],0.015 nM
same,"killing EC50 with PBMCs, VMRCRCW, donor 110040278, E:T 5:1",[1],0.033 nM
same,"killing EC50 with PBMCs, VMRCRCW, donor 110042496, E:T 5:1",[1],0.065 nM
same,"killing EC50 with PBMCs, VMRCRCW, donor 110042593, E:T 5:1",[1],0.033 nM
same,"killing EC50 with PBMCs, VMRCRCW, donor 110044049, E:T 5:1",[1],0.051 nM
same,"killing EC50 with PBMCs, VMRCRCW, donor 110048457, E:T 5:1",[1],0.063 nM
same,"killing EC50 with PBMCs, VMRCRCW, donor 888668965, E:T 5:1",[1],0.062 nM
same,"Cytotox. EC50, human T cells, HepG2-KO cyno ENPP3-OE cells, E:T 3:1",[2],0.079 nM
same,"T-cell activation EC50, human T cells, HepG2-KO cyno ENPP3-OE cells, E:T 3:1",[2],0.023 nM
same,EC50,[3],0.51 nM
same,EC50,[4],177 nM
same,EC50,[5],253 nM
same,EC50,[6],188 nM
same,EC50,[7],132 nM
same,EC50,[8],197 nM
